Experimental data reported in the nanobody polyreactivity screen of Harvey et al. (2022).

Assay: yeast display, Sf9 membrane polyspecificity reagent, FACS + sequencing; frameworks hold sequencing errors
How it was run: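 A synthetic nanobody library was expressed on Saccharomyces cerevisiae BJ5465 by galactose induction for 36–48 hours. The library was stained for 1 hour at 4 °C with 10% biotinylated, detergent-solubilized Sf9 membrane reagent and enriched with streptavidin microbeads before FACS. Low and high (top ~1%) gates were set on anti-HA fluorescence for expression and streptavidin fluorescence for reagent binding, and each polyreactivity label reflects the gate of origin.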

**Q.** For “QVQLVESGGGLVQAGGSLRLSCAASGGIFYGYAMGWYRQAPGKERELVAAISDSGGSTYYADSVKGRFTISRDNAKNTVYLQMNSLKPEDTAVYYCATDAPVGGYVSEGDYWGQGTQVTVSS”, which “polyreactivity (PSR sort gate)” value is on record?
**A.** low polyreactivity

**Q.** Which “polyreactivity (PSR sort gate)” value does the source give for “QVQLVESGGGLVQAGGSLRLSCAASGGIFYGYAMGWYRQAPGKERELVAAITTGGSTNYADSVKGRFTISRDNAKNTVYLQMNSLKPEDTAVYYCAAPVNRAQGPYARRVERYGYWGQGTQVTVSS” here?
**A.** low polyreactivity

**Q.** For “QVQLVESGGGLVQAGGSLRLSCAASGGIFYPYAMGWYRQAPGKERELVASIDVSDGSTYYADSVKGRFTISRDNAKNSVYLQMNSLKPEDTAVYYCAADRYSKAIDFEGDYWGQGTQVTVSS”, which “polyreactivity (PSR sort gate)” value is on record?
**A.** low polyreactivity

**Q.** With “QVQLVESGGGLVQAGGSLRLSCAASGGIISINAMGWYRQAPGKERELVAAISWGDGITYYADSVKGRFTTSRDNAKNTVYLLMTSLKPEDTAVYYCAKDIGTRLGPAGYDYWGQGTQVTVSS” as the sequence, how does the “polyreactivity (PSR sort gate)” value read?
**A.** low polyreactivity

**Q.** Which “polyreactivity (PSR sort gate)” value does the source give for “QVQLVESGGGLVQAGGSLRLSCAASGGIISSYVMGWYRQAPGKERELVAAISRSGGSTYYADSVKGRFTISRDNAKNTVYLQMNSLKPEDTAVYFCAAVLQTRYNYWGQGTQVTVSS” here?
**A.** high polyreactivity

**Q.** Which “polyreactivity (PSR sort gate)” value does the source give for “QVQLVESGGGLVQAGGSLRLSCAASGGILNPNAMGWYRQAPGKERELVAAISNGGGTKYADSVKWRFTISRDNAKNTVYLQMNSLKPEDTAVYYCAARQWWSYDYWGKGTQVTVSS” here?
**A.** high polyreactivity

**Q.** With “QVQLVESGGGLVQAGGSLRLSCAASGGILPKYAMGWYRQAPGKERELVAAIDGGADSTYYADSVKGRFTISRDIAKNTVYLQLNSLKPEDTAVYFCGADGSLHAGHWRTYGYYYWGQGTQVTVSS” as the sequence, how does the “polyreactivity (PSR sort gate)” value read?
**A.** low polyreactivity

**Q.** For “QVQLVESGGGLVQAGGSLRLSCAASGGILRQNTMGWYRQAPGKERELVAAISSSGGRTYYADSVKGRFTISRDNAKNTVYLQMNSLKPEDTAVYYCAAEVRLKYRGWTGDYWGQGTQVTVSS”, which “polyreactivity (PSR sort gate)” value is on record?
**A.** high polyreactivity

**Q.** Which “polyreactivity (PSR sort gate)” value does the source give for “QVQLVESGGGLVQAGGSLRLSCAASGGIPLYYVMGWYRQAPGKERELVADISGDDSTNYADSVKGRFTISRDNAKNTVYLQMNSLKPEDTAVYYCAADGWLWSFTGDGWWFDYWGQGTQVTVSS” here?
**A.** low polyreactivity

**Q.** With “QVQLVESGGGLVQAGGSLRLSCAASGGISYRYAMGWYRQAPGKERELVAAISGRGTSTYYADSVKGRFTISRDNAKNTVYLQMNSLKTEDTAVYYCNAQVGNFGYRSGGYDYWGQGTQVTVSS” as the sequence, how does the “polyreactivity (PSR sort gate)” value read?
**A.** high polyreactivity

**Q.** For “QVQLVESGGGLVQAGGSLRLSCAASGGLFTAYTMGWYRQAPGKERELVAVISSGGGRTYYADSVKGRFTISRDNAKNSVYLQMNSRKPEDTAVYYCNARVYVSANKYDYWGQGTQVTVSS”, which “polyreactivity (PSR sort gate)” value is on record?
**A.** high polyreactivity

**Q.** Which “polyreactivity (PSR sort gate)” value does the source give for “QVQLVESGGGLVQAGGSLRLSCAASGGNFAEYVMGWYRQAPGKERELVAAIDWSGGSTYYADSVKGRFTISRDNAKNTVYLQMNSLKPEDTAVYYCNADGPLDRYEYWGQGTQVTVSS” here?
**A.** low polyreactivity

**Q.** With “QVQLVESGGGLVQAGGSLRLSCAASGGNFWIYTMGWYTQAPGKERELVASITRGGSTYADSVKGRFTISRDKAKNTVYLQMNSLKPEDTAVYYCNAEFRYPWFRWEYDHWGQGTQVTVSS” as the sequence, how does the “polyreactivity (PSR sort gate)” value read?
**A.** low polyreactivity

**Q.** Which “polyreactivity (PSR sort gate)” value does the source give for “QVQLVESGGGLVQAGGSLRLSCAASGGNFYLYAMGWYIQAPGKEREFVAAISSSGGSTNYADSVKGRFTFSRDNAKNTVYLQMNSLKAEDTAVYYCAARWLAFLDLGKTYEYWGQGTHVTVSS” here?
**A.** high polyreactivity

**Q.** Which “polyreactivity (PSR sort gate)” value does the source give for “QVQLVESGGGLVQAGGSLRLSCAASGGSSPNYAMGWYRQAPGKEREFVAGISRSGGSTYYADSVKGRFTISRDNAKNTVYLQMNSLKPEDTAVYVCAAARSRPYDYWGQGTQVTVSS” here?
**A.** high polyreactivity

**Q.** With “QVQLVESGGGLVQAGGSLRLSCAASGGTFAFYAMGWYRQAPGKERELVAAITSGGRTYYADSVKGRFTISRDNAKNTVYLQMKRLKPEDTAVYYCNADWVDHYYVGYDYWGQGTQVTVSS” as the sequence, how does the “polyreactivity (PSR sort gate)” value read?
**A.** low polyreactivity

**Q.** With “QVQLVESGGGLVQAGGSLRLSCAASGGTFAGYAMGWYRQAPGKERELVAAISRSGGSTYYADSVKGRFTISRDNAKNTVYLQMNSLKPEDTAVYYCIAASRTKFDYWGQGTQVTVSS” as the sequence, how does the “polyreactivity (PSR sort gate)” value read?
**A.** high polyreactivity

**Q.** Which “polyreactivity (PSR sort gate)” value does the source give for “QVQLVESGGGLVQAGGSLRLSCAASGGTFDSYAMGWYRQAHGKERELVAAITRRTSSTYYADSVKGRFTISRDNAKNTVYLQMHSLKPEDTAVYYCNADSYYYDHRDFGYWGQGTLVTVSS” here?
**A.** high polyreactivity

**Q.** For “QVQLVESGGGLVQAGGSLRLSCAASGGTFDYYAMGWYRQAPGKERELVAAISTSGGRTYYADSVKGRFTISRDNAKNTVYLQMNSLTPEDTAVYYCAALSRRAKYDSFYYWGQGTQVTVSS”, which “polyreactivity (PSR sort gate)” value is on record?
**A.** high polyreactivity

**Q.** Which “polyreactivity (PSR sort gate)” value does the source give for “QVQLVESGGGLVQAGGSLRLSCAASGGTFERNAMGWYIQAPGKERELVAGMSKISGRTYYADSVKGRFTISRDNAKNTVYLQMNCLKPEDTAVYYCNKVSRSSYGYWGQGTQVTVSS” here?
**A.** high polyreactivity

**Q.** For “QVQLVESGGGLVQAGGSLRLSCAASGGTFFQYAMGWYRQAPGKERELVAAITWSSGSTYYADSVKGRFTISRDNAKNTVYLQMNSLKPEDTAVYYDDYYTYGDYWGQGTQVTVSS”, which “polyreactivity (PSR sort gate)” value is on record?
**A.** low polyreactivity

**Q.** For “QVQLVESGGGLVQAGGSLRLSCAASGGTFFTNAMGWYRQAPGKERELVAAISRGGSSTYYADSVKGRFTISRDNAKNTVYLQMTSLKPEDTAVYYCNKAYHRRDSEFGYWGQGTQVTVSS”, which “polyreactivity (PSR sort gate)” value is on record?
**A.** high polyreactivity

**Q.** Which “polyreactivity (PSR sort gate)” value does the source give for “QVQLVESGGGLVQAGGSLRLSCAASGGTFGGNAMGWYRQAPGKERELVAAITDIGGSTYYADSVKGRFTISRDNAKNTVYLQMNSLKPEDTAVYYCAKDNVEVVGQWSSDEYDYWGQGTQVTVSS” here?
**A.** low polyreactivity

**Q.** With “QVQLVESGGGLVQAGGSLRLSCAASGGTFGKNAMGWYRQAPGKERELVAAITWSGARTFYADSVKGRFTISRDNAKNTVYLQMNSLKPEDTAVYYCAKGGTRFTRYEYWGQGTQVTVSS” as the sequence, how does the “polyreactivity (PSR sort gate)” value read?
**A.** high polyreactivity

**Q.** For “QVQLVESGGGLVQAGGSLRLSCAASGGTFGKNAMGWYRQAPGKERELVAAITWSGARTFYADSVKGRFTISRDNAKNTVYLQMNSLKPEDTAVYYCGKGGTRFTRYEYWGQGTQVTVSS”, which “polyreactivity (PSR sort gate)” value is on record?
**A.** high polyreactivity

**Q.** With “QVQLVESGGGLVQAGGSLRLSCAASGGTFGRYAMGWYRQAPGKERELVAAITYGGGSTYYADSVKGRFTISRDNAKNTVYLQMNSLKPEDTAVYYCNKYASLRYWGQGTQVTVSS” as the sequence, how does the “polyreactivity (PSR sort gate)” value read?
**A.** high polyreactivity

**Q.** Which “polyreactivity (PSR sort gate)” value does the source give for “QVQLVESGGGLVQAGGSLRLSCAASGGTFGSYTMGWYRQAPGKERELVAAISSGGGTDYADSVKGRFTISRDNAKNTVYLQMNSLIPEDTAVYYCYAKSYYAWGSVRYPQTFDYWGQGTQVTVSS” here?
**A.** low polyreactivity

**Q.** With “QVQLVESGGGLVQAGGSLRLSCAASGGTFGYNAMGWYRQAPGKERELVAAIRNCGSTYYADSVKGRFTISRDNAKNTVYLQMNSLKQEDTAVYYCAAKVYRKLNYWVQGTQVTVSS” as the sequence, how does the “polyreactivity (PSR sort gate)” value read?
**A.** high polyreactivity

**Q.** For “QVQLVESGGGLVQAGGSLRLSCAASGGTFHSNAMGWYRQAPGKERELVAAISWSDDTTYYADSVKGRFTISRDNAKNTVYLQINSLKPDDTAVYYCATVFFVLPPSRFDSWGQGTQVTVSS”, which “polyreactivity (PSR sort gate)” value is on record?
**A.** low polyreactivity

**Q.** Which “polyreactivity (PSR sort gate)” value does the source give for “QVQLVESGGGLVQAGGSLRLSCAASGGTFKHYAMGWYRQAAGKERELVAAITRTGGSTYYADSVKGRYTISRDNAKNTVYLQMNSLKPEDTAVYYCAAQRPRGAYRHYDYWGQGTQVTVSS” here?
**A.** high polyreactivity

**Q.** With “QVQLVESGGGLVQAGGSLRLSCAASGGTFNANGMGWYRQAPGKERELVAAISQRAGRTYYADSVKGRFTISRDNAKNTVYLQMNSLKPEDTAVFYCAKRPTDRRFGSGYWGQGTQVTVSS” as the sequence, how does the “polyreactivity (PSR sort gate)” value read?
**A.** high polyreactivity

**Q.** For “QVQLVESGGGLVQAGGSLRLSCAASGGTFNGNTMGWYRQAPGKERELVAVIDWSGGSTYYADSVKGRFTISRDNAKNTVYLQMNSLKPEDTAVYYCNADSDAQFREPKGLYYWGQGTQVTVSS”, which “polyreactivity (PSR sort gate)” value is on record?
**A.** low polyreactivity

**Q.** With “QVQLVESGGGLVQAGGSLRLSCAASGGTFPPNTMGWSRQAPGKEREFVAASTWRGSSTYYADSVKGRFTISRDKAKNTVYLQMNSLKPEDTAVYYCAARRAYERMGYWGQGTQVTVSS” as the sequence, how does the “polyreactivity (PSR sort gate)” value read?
**A.** high polyreactivity

**Q.** Which “polyreactivity (PSR sort gate)” value does the source give for “QVQLVESGGGLVQAGGSLRLSCAASGGTFPQFAMGWYRQAPGKEREFVADITSRGGTTYYADSVKGRFTISRDNAKNTVYLQMNSLKPEDTAVYYCAADNPADWWGLDYWGQGTQVTVSS” here?
**A.** low polyreactivity

**Q.** With “QVQLVESGGGLVQAGGSLRLSCAASGGTFPQYAMGWYRQAPGKEREFVADITSRGGTTYYADSVKGRFTISRDNAKNTVYLQMNSLKPEDTAVYYCAAVNVAYSWYDTGYDYWGQGTQVTVSS” as the sequence, how does the “polyreactivity (PSR sort gate)” value read?
**A.** low polyreactivity

**Q.** Which “polyreactivity (PSR sort gate)” value does the source give for “QVQLVESGGGLVQAGGSLRLSCAASGGTFPRNAMGWYRQAPGKERELVAAINQSGGRTYYADSVKGRFTISRDNAKNTVYLQLNSLKPEDTAVYYCAARVTYYRTYRGRQYGYWGQGTQVTVSS” here?
**A.** high polyreactivity

**Q.** For “QVQLVESGGGLVQAGGSLRLSCAASGGTFPYYAMGWYRQAPGKERELVAAITWDGGSTYYADSVKGRFTISRDNAKNTVYLQMNSLKPDATAVYYCNVRYYRYISRYDYWVQGTQVTVSS”, which “polyreactivity (PSR sort gate)” value is on record?
**A.** high polyreactivity

**Q.** With “QVQLVESGGGLVQAGGSLRLSCAASGGTFQQHAMGWYRKAPGTERELVAAISRSGGNTYYADSVKGRFTISRDNSKNTVYFQMNSLKPEDTAVYSCAVVSSSQYSRYTSQWKEYYWGKGTQVTVSS” as the sequence, how does the “polyreactivity (PSR sort gate)” value read?
**A.** low polyreactivity

**Q.** Which “polyreactivity (PSR sort gate)” value does the source give for “QVQLVESGGGLVQAGGSLRLSCAASGGTFQRYVMGWYRQAPGKERELVAAISRSGSTYADSVKGRFTISRDNAKNTVYLQMNSLKPEDTAVYYCNVVRYYRYYLHGYDYWGQGTQVTVSS” here?
**A.** high polyreactivity

**Q.** For “QVQLVESGGGLVQAGGSLRLSCAASGGTFQYYTMGWYRQAPGKERELVAGISSGGSTYYADSVKGRFTISRDNAKNTVYLQMNSLKPEDTAVYYCNAVSRRKTYGYRIIKYDYWGQGTQVTVSS”, which “polyreactivity (PSR sort gate)” value is on record?
**A.** high polyreactivity

**Q.** With “QVQLVESGGGLVQAGGSLRLSCAASGGTFRPNAMGWYRQAPGKERELVAAITRSGGSTYYADSVKGRFTISRDNAKNTVYLQMNSLKPEDTAVYYCARDLRECGQGTQVTVSS” as the sequence, how does the “polyreactivity (PSR sort gate)” value read?
**A.** low polyreactivity
